Assay results taken from patent publication US20130230554A1.

Target: SVGmu, modified Sindbis virus envelope glycoprotein (SEQ ID NO: 11) (Sindbis virus) (UniProt P03316)
Assay: confocal imaging; anti-HA-biotin plus Cy5-streptavidin staining of GFP-vpr-labeled lentiviral particles on coverslips

Q: Which fraction of GFP-labeled particles stained for SVGmu does the source give for “anti-HA-biotin antibody (Miltenyi Biotec)” here?
A: Its fraction of GFP-labeled particles stained for SVGmu is over 90%.
